Test [1] addresses recombinant his-tagged soluble human IL-11R (human) (UniProt Q14626). Put plainly: SPR; Biacore X100, multi-cycle, NTA sensor chip; his-tagged soluble hIL-6R or hIL-11R immobilised (100-250 RU per cycle); cytokines injected 133.33 to 0.183 nM, 30 uL/min, 180 s, dissociation 800 s; 25 °C, PBS with 0.05% P20 and 50 uM EDTA; two-state reaction fit.
Test [2] concerns the target recombinant his-tagged soluble human IL-6R (human) (UniProt P08887). The test is described as above.

recombinant his-tagged soluble human IL-6R (human), sequence (P08887 20-365): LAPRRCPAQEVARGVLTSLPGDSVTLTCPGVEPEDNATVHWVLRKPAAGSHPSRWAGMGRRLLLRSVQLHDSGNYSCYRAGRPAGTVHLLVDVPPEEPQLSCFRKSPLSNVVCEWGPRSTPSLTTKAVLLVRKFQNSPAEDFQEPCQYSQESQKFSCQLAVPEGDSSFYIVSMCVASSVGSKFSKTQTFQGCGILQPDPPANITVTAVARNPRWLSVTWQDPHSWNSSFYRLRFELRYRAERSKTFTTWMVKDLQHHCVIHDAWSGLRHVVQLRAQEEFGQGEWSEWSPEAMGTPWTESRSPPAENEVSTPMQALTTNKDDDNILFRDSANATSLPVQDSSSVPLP
recombinant his-tagged soluble human IL-11R (human), sequence (Q14626 24-370): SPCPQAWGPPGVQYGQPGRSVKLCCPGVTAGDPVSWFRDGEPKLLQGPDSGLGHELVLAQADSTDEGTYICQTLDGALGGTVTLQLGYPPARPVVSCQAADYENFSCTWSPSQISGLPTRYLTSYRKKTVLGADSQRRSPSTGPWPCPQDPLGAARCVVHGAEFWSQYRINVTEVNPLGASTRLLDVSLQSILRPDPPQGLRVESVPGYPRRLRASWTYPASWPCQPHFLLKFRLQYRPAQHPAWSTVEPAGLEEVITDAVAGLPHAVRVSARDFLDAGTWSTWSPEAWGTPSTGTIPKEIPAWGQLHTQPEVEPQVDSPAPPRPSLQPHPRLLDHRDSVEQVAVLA
chimeric cytokine IC7, Twin-Strep-tagged (IC7ts), sequence (P05231 30-212, change not shown): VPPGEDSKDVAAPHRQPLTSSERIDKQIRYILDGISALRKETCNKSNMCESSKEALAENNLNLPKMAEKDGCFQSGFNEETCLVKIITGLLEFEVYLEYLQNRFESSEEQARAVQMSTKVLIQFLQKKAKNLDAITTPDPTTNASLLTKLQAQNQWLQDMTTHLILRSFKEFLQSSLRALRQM

Consider “chimeric cytokine IC7, Twin-Strep-tagged (IC7ts) (from UniProt P05231 30-212) (ligand)”, for which, in test [1], the Kd was 48.1 nM; the ka1 (two-state fit, first step) was 59900 M⁻¹ s⁻¹; the ka2 (two-state fit, second step) amounted to 0.0104 s⁻¹; the kd1 (two-state fit, first step) amounted to 0.0193 s⁻¹. Moreover, the kd2 (two-state fit, second step) in test [1] is 0.00183 s⁻¹. In test [2], the Kd was found to be 6.38 nM; the ka1 (two-state fit, first step) was 92200 M⁻¹ s⁻¹; the ka2 (two-state fit, second step) turned out to be 0.00751 s⁻¹; the kd1 (two-state fit, first step) stood at 0.00932 s⁻¹. The kd2 (two-state fit, second step) in test [2] worked out at 0.000506 s⁻¹.

What is called Kd is the free concentration of one partner at which half of the binding sites on the other are occupied at equilibrium, for simple one-to-one binding.

(Values after paper PMC11796321.)
